Results on two variants are retold here after IntAct's records for PubMed 18946488.

First the molecules themselves.
B1: Rho-related GTP-binding protein RhoE (Mus musculus), P61588 (parent)
chain: MKERRASQKLSSKSIMDPNQNVKCKIVVVGDSQCGKTALLHVFAKDCFPENYVPTVFENYTASFEIDTQRIELSLWDTSGSPYYDNVRPLSYPDSDAVLICFDISRPETLDSVLKKWKGEIQEFCPNTKMLLVGCKSDLRTDVSTLVELSNHRQTPVSYDQGANMAKQIGAATYIECSALQSENSVRDIFHVATLACVNKTNKNVKRNKSQRATKRISHMPSRPELSAVATDLRKDKAKSCTVM

The variants in one assay derive from B1. As to conditions: with rock1_mouse Rock1, P70335.
rock1_mouse Rock1, P70335, sequence (P70335 whole entry): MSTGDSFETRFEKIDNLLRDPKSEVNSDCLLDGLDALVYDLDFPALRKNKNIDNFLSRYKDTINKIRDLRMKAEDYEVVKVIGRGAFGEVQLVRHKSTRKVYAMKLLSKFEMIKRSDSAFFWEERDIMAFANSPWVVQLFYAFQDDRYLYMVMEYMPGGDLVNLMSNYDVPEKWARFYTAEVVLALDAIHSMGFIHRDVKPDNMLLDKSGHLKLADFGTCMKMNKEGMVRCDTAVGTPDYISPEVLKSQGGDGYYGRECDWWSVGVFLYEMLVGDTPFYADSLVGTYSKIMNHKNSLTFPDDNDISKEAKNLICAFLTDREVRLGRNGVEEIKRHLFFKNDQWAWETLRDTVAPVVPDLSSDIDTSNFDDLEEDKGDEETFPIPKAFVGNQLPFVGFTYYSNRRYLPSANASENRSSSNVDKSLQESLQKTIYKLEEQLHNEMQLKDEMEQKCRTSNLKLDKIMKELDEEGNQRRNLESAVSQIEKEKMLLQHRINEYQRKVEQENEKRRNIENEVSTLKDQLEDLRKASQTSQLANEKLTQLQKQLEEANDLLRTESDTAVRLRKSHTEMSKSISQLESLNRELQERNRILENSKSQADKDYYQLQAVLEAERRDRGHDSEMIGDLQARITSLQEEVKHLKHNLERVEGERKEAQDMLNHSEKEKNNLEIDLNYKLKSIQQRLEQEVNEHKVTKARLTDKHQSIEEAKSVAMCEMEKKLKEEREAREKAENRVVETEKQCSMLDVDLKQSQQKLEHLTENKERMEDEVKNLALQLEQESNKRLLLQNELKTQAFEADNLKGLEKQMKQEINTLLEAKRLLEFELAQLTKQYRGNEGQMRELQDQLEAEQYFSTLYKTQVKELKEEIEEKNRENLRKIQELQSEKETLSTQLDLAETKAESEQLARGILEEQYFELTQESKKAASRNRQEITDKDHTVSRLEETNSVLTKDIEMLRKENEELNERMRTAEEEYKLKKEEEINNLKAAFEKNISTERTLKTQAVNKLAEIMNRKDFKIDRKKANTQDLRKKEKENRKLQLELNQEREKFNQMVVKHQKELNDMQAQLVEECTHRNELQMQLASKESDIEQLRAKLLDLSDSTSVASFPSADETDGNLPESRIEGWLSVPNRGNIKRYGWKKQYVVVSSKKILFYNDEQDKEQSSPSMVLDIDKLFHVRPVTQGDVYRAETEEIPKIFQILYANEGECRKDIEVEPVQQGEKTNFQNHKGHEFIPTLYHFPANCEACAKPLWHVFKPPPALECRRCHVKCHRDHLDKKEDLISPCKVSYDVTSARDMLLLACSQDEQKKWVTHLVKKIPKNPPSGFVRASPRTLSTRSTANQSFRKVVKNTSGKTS
Turning to T173R, the “effect of a mutation on the interaction” value is reported as “disrupting interaction”.

The variants in another assay derive from B1. As to conditions: with rock1_mouse Rock1, P70335. This is another data set of the same source.
Consider V192R, for which the “effect of a mutation on the interaction” value is on record as “disrupting interaction”.
